Assays:
[1] = target: MucA’ protein (plasmid pKM101 (host species not stated)); assay: SEC; Superdex 75 XK 16/60, 20 mM HEPES pH 7.4, 10% glycerol, 150 mM NaCl, 0.1 mM EDTA, 1 mM DTT; 1 ml of 2.5 mg/ml MucA’ applied; calibrated with protein standards
RecA = RecA (UniProt P0A7G6); assay: SPR; another set of experiments; calculated KD for MucB and RecA; details not told
[2] = target: β-subunit of DNA polymerase III holoenzyme of E. coli (E. coli) (UniProt P0A988); assay: SPR; BIAcore 2000, kinetic analysis at lower ligand densities (577 RU of immobilized β, 1036 RU of immobilized MucA’ on CM5); MucB in the mobile phase; BSA reference cell; apparent constants; data not shown
Sequence of β-subunit of DNA polymerase III holoenzyme of E. coli (E. coli) (P0A988 whole entry): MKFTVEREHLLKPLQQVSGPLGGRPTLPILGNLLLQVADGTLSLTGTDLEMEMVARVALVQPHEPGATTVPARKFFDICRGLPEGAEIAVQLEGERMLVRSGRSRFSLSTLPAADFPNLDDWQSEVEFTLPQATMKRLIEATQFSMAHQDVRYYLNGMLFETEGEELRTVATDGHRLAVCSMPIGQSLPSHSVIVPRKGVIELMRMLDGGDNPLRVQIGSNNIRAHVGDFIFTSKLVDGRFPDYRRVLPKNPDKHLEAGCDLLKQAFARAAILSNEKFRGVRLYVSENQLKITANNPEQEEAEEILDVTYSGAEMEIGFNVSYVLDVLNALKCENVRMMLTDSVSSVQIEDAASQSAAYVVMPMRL

Sequence of RecA (P0A7G6 whole entry): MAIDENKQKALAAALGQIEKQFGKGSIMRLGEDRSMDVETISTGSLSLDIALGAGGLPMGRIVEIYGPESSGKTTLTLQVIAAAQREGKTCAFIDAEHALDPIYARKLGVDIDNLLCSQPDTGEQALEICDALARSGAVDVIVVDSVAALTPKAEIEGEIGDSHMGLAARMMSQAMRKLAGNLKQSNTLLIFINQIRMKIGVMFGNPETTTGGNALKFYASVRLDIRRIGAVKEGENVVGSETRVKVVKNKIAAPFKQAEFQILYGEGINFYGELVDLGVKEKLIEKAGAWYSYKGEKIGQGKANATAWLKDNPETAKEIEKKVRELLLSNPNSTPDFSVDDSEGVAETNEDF

MucA’ protein (natural protein) showed a stoichiometry N [1] of 2.
In the case of “MucB protein (from UniProt P07375 1-420) (enzyme)”, the Kd (RecA) is reported as 2.41 nM, the Kd [2] is reported as 0.31 nM and the amount bound (RU) [2] is reported as 349 RU. It also gave a koff [2] of 1.2e-05 s⁻¹ and a kon [2] of 38700 M⁻¹ s⁻¹.
